pKd: −log10 of the molar value. Where two headings read alike, the source gives them in different places.
How the values were obtained:
Assay in all cases: NMR titration
[1] = molecular target: 3-fluorotyrosine labeled A34F variant of the B1 domain of protein G (T2Q background)
[2] = molecular target: 3-fluorotyrosine labeled A34F variant of the B1 domain of protein G (T2Q background); remark: listed apart in the source
[3] = molecular target: 3-fluorotyrosine labeled A34F variant of the B1 domain of protein G (T2Q background); remark: listed apart in the source
[4] = molecular target: 3-fluorotyrosine labeled A34F variant of the B1 domain of protein G (T2Q background); remark: listed apart in the source
[5] = molecular target: 3-fluorotyrosine labeled A34F variant of the B1 domain of protein G (T2Q background); remark: listed apart in the source
[6] = molecular target: 3-fluorotyrosine labeled A34F variant of the B1 domain of protein G (T2Q background); remark: listed apart in the source
[7] = molecular target: 3-fluorotyrosine labeled A34F variant of the B1 domain of protein G (T2Q background); remark: listed apart in the source
[8] = molecular target: 3-fluorotyrosine labeled A34F variant of the B1 domain of protein G (T2Q background); remark: listed apart in the source
[9] = molecular target: 3-fluorotyrosine labeled A34F variant of the B1 domain of protein G (T2Q background); remark: listed apart in the source
[10] = molecular target: 3-fluorotyrosine labeled A34F variant of the B1 domain of protein G (T2Q background); remark: listed apart in the source

## 3-fluorotyrosine labeled A34F variant of the B1 domain of protein G (T2Q background) (domain or fragment)
[1]
  pKd: 4.60
[2]
  pKd: 4.23
[3]
  pKd: 4.77
[4]
  pKd: 4.02
[5]
  pKd: 4.05
[6]
  pKd: 4.35
[7]
  pKd: 4.26
[8]
  pKd: 4.10
[9]
  pKd: 4.07
[10]
  pKd: 4.59

Reference: publication PMC5985514
